Source: patent publication US20260151494A1 (ARO BIOTHERAPEUTICS, published 2026)
Substitutions are numbered along the chain they refer to.

B1: CD71-binding FN3 domain of SEQ ID NO: 469 (designed binder)
chain: MLPAPKNLVVSRVTEDSARLSWTAPDAAFDSFFIGYLEPQPPGEAIHLYVPGSERSYDLTGLKPGTEYNVTIQGVKGGFPSLPLVATFTT
B2: CD71-binding FN3 domain of SEQ ID NO: 516 (designed binder)
chain: B1 chain with H47S, Y49W, L82S, T87Y
B3: CD71-binding FN3 domain of SEQ ID NO: 490 (designed binder)
chain: B1 chain with H47S, Y49Q, L82A, T87N
B4: CD71-binding FN3 domain of SEQ ID NO: 508 (designed binder)
chain: B1 chain with H47T, Y49S, L82E, V85I, T87I
B5: CD71-binding FN3 domain of SEQ ID NO: 521 (designed binder)
chain: B1 chain with H47V, Y49W, L82H, T87H
B6: CD71-binding FN3 domain of SEQ ID NO: 500 (designed binder)
chain: B1 chain with H47D, Y49L, L82M, V85S, T87I
B7: CD71-binding FN3 domain of SEQ ID NO: 482 (designed binder)
chain: B1 chain with V9I, Y49Q, L82N, V85H, T87E
B8: CD71-binding FN3 domain of SEQ ID NO: 487 (designed binder)
chain: B1 chain with H47G, Y49R, L82E, V85I, T87D
B9: CD71-binding FN3 domain of SEQ ID NO: 485 (designed binder)
chain: B1 chain with Y49W, V85L, T87K
B10: CD71-binding FN3 domain of SEQ ID NO: 515 (designed binder)
chain: B1 chain with H47A, Y49W, L82T, V85I, T87Q
B11: CD71-binding FN3 domain of SEQ ID NO: 473 (designed binder)
chain: B1 chain with H47D, Y49W, V85S, T87S
B12: CD71-binding FN3 domain of SEQ ID NO: 499 (designed binder)
chain: B1 chain with H47S, L82S, V85F, T87D
B13: CD71-binding FN3 domain of SEQ ID NO: 518 (designed binder)
chain: B1 chain with H47S, Y49W, L82D, V85G, T87H
B14: CD71-binding FN3 domain of SEQ ID NO: 478 (designed binder)
chain: B1 chain with L82V, V85I, T87K
B15: CD71-binding FN3 domain of SEQ ID NO: 470 (designed binder)
chain: B1 chain with H47T, Y49L, L82M, V85S, T87I
B16: CD71-binding FN3 domain of SEQ ID NO: 502 (designed binder)
chain: B1 chain with H47G, Y49H, L82I, V85E, T87K
B17: CD71-binding FN3 domain of SEQ ID NO: 514 (designed binder)
chain: B1 chain with Y49F, L82E, V85I, T87N
B18: CD71-binding FN3 domain of SEQ ID NO: 505 (designed binder)
chain: B1 chain with P25L, Y49F, L82E, V85I, T87N
B19: CD71-binding FN3 domain of SEQ ID NO: 511 (designed binder)
chain: B1 chain with H47D, Y49F, T87S
B20: CD71-binding FN3 domain of SEQ ID NO: 517 (designed binder)
chain: B1 chain with H47A, Y49V, L82M, V85F, T87Y
B21: CD71-binding FN3 domain of SEQ ID NO: 497 (designed binder)
chain: B1 chain with H47T, Y49L, L82K, V85Y, T87Y
B22: CD71-binding FN3 domain of SEQ ID NO: 513 (designed binder)
chain: B1 chain with H47S, V85A, T87Q
B23: CD71-binding FN3 domain of SEQ ID NO: 522 (designed binder)
chain: B1 chain with H47T, T60N, L82M, V85S, T87I
B24: CD71-binding FN3 domain of SEQ ID NO: 474 (designed binder)
chain: B1 chain with H47G, Y49A, L82E, V85I, T87D
B25: CD71-binding FN3 domain of SEQ ID NO: 479 (designed binder)
chain: B1 chain with H47N, Y49W, L82T, V85F, T87G
B26: CD71-binding FN3 domain of SEQ ID NO: 501 (designed binder)
chain: B1 chain with H47S, Y49L, L82V, V85S, T87I
B27: CD71-binding FN3 domain of SEQ ID NO: 486 (designed binder)
chain: B1 chain with K6E, P25L, H47S, Y49L, F79I, P80A, L82E, V85S, T87A
B28: CD71-binding FN3 domain of SEQ ID NO: 523 (designed binder)
chain: B1 chain with H47D, Y49L, L82E, V85T, T87E
B29: CD71-binding FN3 domain of SEQ ID NO: 481 (designed binder)
chain: B1 chain with H47T, L59M, V85Q, T87H
B30: CD71-binding FN3 domain of SEQ ID NO: 491 (designed binder)
chain: B1 chain with P42S, Y49I, L82D, T87S
B31: CD71-binding FN3 domain of SEQ ID NO: 512 (designed binder)
chain: B1 chain with H47D, Y49W, L82D, V85D, T87H
B32: CD71-binding FN3 domain of SEQ ID NO: 472 (designed binder)
chain: B1 chain with H47E
B33: CD71-binding FN3 domain of SEQ ID NO: 493 (designed binder)
chain: B1 chain with H47L, Y49A, T87H
B34: CD71-binding FN3 domain of SEQ ID NO: 483 (designed binder)
chain: B1 chain with H47T, Y49V, L82D, T87S
B35: CD71-binding FN3 domain of SEQ ID NO: 494 (designed binder)
chain: B1 chain with A24T, H47S, L82M, V85S, T87I
B36: CD71-binding FN3 domain of SEQ ID NO: 498 (designed binder)
chain: B1 chain with H47I, Y49W, L82I, V85I, T87V
B37: CD71-binding FN3 domain of SEQ ID NO: 504 (designed binder)
chain: B1 chain with H47G, Y49V, L82H, V85G, T87I
B38: CD71-binding FN3 domain of SEQ ID NO: 496 (designed binder)
chain: B1 chain with H47I, Y49W, L82V, V85I, T87Q
B39: CD71-binding FN3 domain of SEQ ID NO: 475 (designed binder)
chain: B1 chain with H47T, L82I, V85S, T87E
B40: CD71-binding FN3 domain of SEQ ID NO: 476 (designed binder)
chain: B1 chain with Y49Q, L82I, V85I, T87V

molecular target: T1, human CD71 extracellular domain (human, UniProt P02786 89-760, biotinylated); test: primary ELISA; note: test concentration or dose not given here
T1 construct: also called hCD71; CD71-ECD
T1 sequence (P02786 89-760): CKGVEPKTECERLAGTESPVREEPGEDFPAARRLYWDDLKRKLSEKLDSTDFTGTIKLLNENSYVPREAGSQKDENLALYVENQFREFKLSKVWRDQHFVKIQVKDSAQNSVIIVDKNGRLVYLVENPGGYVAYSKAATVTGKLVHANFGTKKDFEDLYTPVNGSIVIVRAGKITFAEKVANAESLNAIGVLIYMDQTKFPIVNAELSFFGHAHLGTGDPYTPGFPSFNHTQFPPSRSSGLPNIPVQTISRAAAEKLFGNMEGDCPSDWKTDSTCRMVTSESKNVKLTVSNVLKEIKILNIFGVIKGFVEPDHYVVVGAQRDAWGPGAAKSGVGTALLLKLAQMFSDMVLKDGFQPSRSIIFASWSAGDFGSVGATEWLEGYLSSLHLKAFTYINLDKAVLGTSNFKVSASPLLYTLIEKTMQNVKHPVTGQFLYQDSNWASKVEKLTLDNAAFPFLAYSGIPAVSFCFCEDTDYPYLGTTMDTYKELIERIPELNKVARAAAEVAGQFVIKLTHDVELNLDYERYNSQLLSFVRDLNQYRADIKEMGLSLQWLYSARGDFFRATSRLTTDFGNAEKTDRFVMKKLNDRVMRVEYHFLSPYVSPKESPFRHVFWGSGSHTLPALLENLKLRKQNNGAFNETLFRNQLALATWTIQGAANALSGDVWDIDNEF

Binder	RLU [RLU]
B1	5.4e+06
B2	4.73e+06
B3	4.15e+06
B4	4.22e+06
B5	5.62e+06
B6	2.95e+06
B7	2.23e+06
B8	2.27e+06
B9	2.47e+06
B10	5.14e+06
B11	2.91e+06
B12	2.78e+06
B13	1.85e+06
B14	5.39e+06
B15	2.47e+06
B16	1.49e+06
B17	5.92e+06
B18	5.38e+06
B19	5.03e+06
B20	3.12e+06

Binder	RLU [RLU]
B21	2.93e+06
B22	2.52e+06
B23	3.91e+06
B24	3.04e+06
B25	2.66e+06
B26	3.21e+06
B27	1.75e+06
B28	4.19e+06
B29	3.71e+06
B30	4.66e+06
B31	2.06e+06
B32	4.52e+06
B33	2.75e+06
B34	3.05e+06
B35	3.2e+06
B36	5.7e+06
B37	1.22e+06
B38	5.27e+06
B39	3.46e+06
B40	4.15e+06

molecular target: T2, apical domain of human CD71 (human, UniProt P02786 189-383, limits assumed); test: primary ELISA; note: test concentration or dose not given here
T2 construct: domain: apical domain; Screen 4 panned on human apical domains, the ELISA text says only 'apical domain'
T2 sequence (P02786 189-383 limits assumed): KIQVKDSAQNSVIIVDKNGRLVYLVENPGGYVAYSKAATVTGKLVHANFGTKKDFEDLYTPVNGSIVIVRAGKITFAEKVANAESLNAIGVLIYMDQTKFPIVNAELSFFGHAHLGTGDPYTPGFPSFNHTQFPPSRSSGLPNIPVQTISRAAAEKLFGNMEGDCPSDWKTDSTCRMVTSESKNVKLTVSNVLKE

Binder	RLU [RLU]
B1	5.56e+06
B2	4.67e+06
B3	2.9e+06
B4	3.55e+06
B5	5.38e+06
B6	3.39e+06
B7	2.66e+06
B8	3.43e+06
B9	3.23e+06
B10	4.67e+06
B11	3.03e+06
B12	3.13e+06
B13	3.34e+06
B14	5.9e+06
B15	4.74e+06
B16	2.34e+06
B17	5.94e+06
B18	5.64e+06
B19	5.48e+06
B20	3.64e+06

Binder	RLU [RLU]
B21	4.58e+06
B22	2.72e+06
B23	3.48e+06
B24	2.72e+06
B25	4.83e+06
B26	4.88e+06
B27	1.98e+06
B28	4.31e+06
B29	3.65e+06
B30	5.07e+06
B31	3.87e+06
B32	4.97e+06
B33	2.5e+06
B34	3.47e+06
B35	3.32e+06
B36	5.67e+06
B37	2.68e+06
B38	5.66e+06
B39	3.21e+06
B40	3.4e+06

molecular target: T1, human CD71 extracellular domain; test: primary ELISA, RLU over HSA

Binder	hCD71:HSA
B1	73
B2	267
B3	403
B4	264
B5	186
B6	147
B7	247
B8	146
B9	66
B10	97
B11	88
B12	132
B13	150
B14	56
B15	79
B16	141
B17	119
B18	52
B19	49
B20	142

Binder	hCD71:HSA
B21	229
B22	186
B23	318
B24	312
B25	206
B26	399
B27	297
B28	292
B29	816
B30	265
B31	124
B32	162
B33	190
B34	136
B35	356
B36	113
B37	78
B38	43
B39	101
B40	262

molecular target: T2, apical domain of human CD71; test: primary ELISA, RLU over HSA

Binder	Apical domain:HSA
B1	75
B2	264
B3	281
B4	222
B5	178
B6	169
B7	295
B8	220
B9	86
B10	88
B11	91
B12	148
B13	271
B14	61
B15	152
B16	222
B17	119
B18	54
B19	53
B20	166

Binder	Apical domain:HSA
B21	358
B22	201
B23	283
B24	279
B25	373
B26	606
B27	335
B28	300
B29	803
B30	288
B31	233
B32	178
B33	172
B34	154
B35	369
B36	112
B37	172
B38	47
B39	94
B40	215
